Biological target: the molecule itself
Test: SEC + native gel or EMSA

Protein	stoichiometry N
Cu, Zn superoxide dismutase 1 (SOD1) F20L-H46Q, de-metallated (enzyme) not shown	3
Cu, Zn superoxide dismutase 1 (SOD1) H46Q-G108H, de-metallated (enzyme) not shown	3

Reference: paper doi:10.1101/2021.08.17.456705 (bioRxiv, 2021)
